According to the supplement of paper PMC9112550, “Optimization of the antimicrobial peptide Bac7 by deep mutational scanning” (BMC Biology, 2022):

Test system: Escherichia coli TOP10
Assay: shrunken log2 fold change of peptide-encoding DNA abundance (4.5 h post-induction vs induction); higher = less antimicrobial activity (less host growth inhibition)
Conditions: time post-induction: 4.5 h; library: site-saturation at positions 5, 18, 19, 20
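Also: peptides expressed intracellularly from a pBAD plasmid library in pooled LB shake-flask culture, induced with 0.3% L-arabinose, DNA abundance read by NGS, three biological replicates, DESeq2 with apeglm shrinkage.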

First: RRIRPRPPRLPRPRPRPVNSPRP
Second: RRIRPRPPRLPRPRPRPVNWPRP
The “shrunken log2 fold change” value of the first is lower: -0.196 for the first, 0.297 for the second.

Compared with RRIRPRPPRLPRPRPRPVNYPRP, RRIRPRPPRLPRPRPRPVRSPRP is higher in “shrunken log2 fold change” value: -0.335 for the first, 0.371 for the second.

Going from RRIRPRPPRLPRPRPRPVWTPRP to RRIRPRPPRLPRPRPRPVYSPRP, the “shrunken log2 fold change” value falls from 0.224 to -0.297.

First: RRIRPRPPRLPRPRPRPVYVPRP
Second: RRIRPRPPRLPRPRPRPWAFPRP
The “shrunken log2 fold change” value of the first is lower: -0.167 for the first, 0.144 for the second.

RRIRPRPPRLPRPRPRPWAVPRP and RRIRPRPPRLPRPRPRPWCDPRP are within 0.2 log units of each other in “shrunken log2 fold change” value: -0.227 for the first, -0.301 for the second.

RRIRPRPPRLPRPRPRPWEGPRP and RRIRPRPPRLPRPRPRPWELPRP are within 0.2 log units of each other in “shrunken log2 fold change” value: 0.0632 for the first, 0.0728 for the second.

First: RRIRPRPPRLPRPRPRPWEWPRP
Second: RRIRPRPPRLPRPRPRPWGAPRP
The “shrunken log2 fold change” value of the first is lower: 0.0238 for the first, 0.738 for the second.

RRIRPRPPRLPRPRPRPWGKPRP and RRIRPRPPRLPRPRPRPWGQPRP are within 0.2 log units of each other in “shrunken log2 fold change” value: 0.248 for the first, 0.0568 for the second.

Compared with RRIRPRPPRLPRPRPRPWIPPRP, RRIRPRPPRLPRPRPRPWKFPRP is higher in “shrunken log2 fold change” value: -0.225 for the first, -0.0127 for the second.

RRIRPRPPRLPRPRPRPWKPPRP and RRIRPRPPRLPRPRPRPWLPPRP are within 0.2 log units of each other in “shrunken log2 fold change” value: -0.149 for the first, -0.0294 for the second.

First: RRIRPRPPRLPRPRPRPWMFPRP
Second: RRIRPRPPRLPRPRPRPWMNPRP
The “shrunken log2 fold change” value of the first is lower: -0.306 for the first, -0.0141 for the second.

RRIRPRPPRLPRPRPRPWMQPRP and RRIRPRPPRLPRPRPRPWQHPRP are within 0.2 log units of each other in “shrunken log2 fold change” value: 0.0452 for the first, -0.105 for the second.

Compared with RRIRPRPPRLPRPRPRPWQIPRP, RRIRPRPPRLPRPRPRPWRTPRP is lower in “shrunken log2 fold change” value: 0.452 for the first, 0.141 for the second.

RRIRPRPPRLPRPRPRPWTDPRP and RRIRPRPPRLPRPRPRPWTSPRP are within 0.2 log units of each other in “shrunken log2 fold change” value: 0.0245 for the first, -0.0224 for the second.

RRIRPRPPRLPRPRPRPWTVPRP and RRIRPRPPRLPRPRPRPWVHPRP are within 0.2 log units of each other in “shrunken log2 fold change” value: -0.155 for the first, -0.0708 for the second.

RRIRPRPPRLPRPRPRPWVIPRP and RRIRPRPPRLPRPRPRPWVLPRP are within 0.2 log units of each other in “shrunken log2 fold change” value: 0.0892 for the first, -0.0962 for the second.

RRIRPRPPRLPRPRPRPWWEPRP and RRIRPRPPRLPRPRPRPWYTPRP are within 0.2 log units of each other in “shrunken log2 fold change” value: 0.0134 for the first, -0.0297 for the second.

RRIRPRPPRLPRPRPRPYCSPRP and RRIRPRPPRLPRPRPRPYCVPRP are within 0.2 log units of each other in “shrunken log2 fold change” value: -0.294 for the first, -0.479 for the second.

Compared with RRIRPRPPRLPRPRPRPYDHPRP, RRIRPRPPRLPRPRPRPYDKPRP is lower in “shrunken log2 fold change” value: -0.0209 for the first, -0.512 for the second.

RRIRPRPPRLPRPRPRPYEQPRP and RRIRPRPPRLPRPRPRPYEYPRP are within 0.2 log units of each other in “shrunken log2 fold change” value: -0.116 for the first, -0.314 for the second.

Going from RRIRPRPPRLPRPRPRPYFAPRP to RRIRPRPPRLPRPRPRPYFKPRP, the “shrunken log2 fold change” value falls from -0.0984 to -0.796.

First: RRIRPRPPRLPRPRPRPYFMPRP
Second: RRIRPRPPRLPRPRPRPYHKPRP
The “shrunken log2 fold change” value of the first is higher: -0.555 for the first, -1.15 for the second.

First: RRIRPRPPRLPRPRPRPYKQPRP
Second: RRIRPRPPRLPRPRPRPYKRPRP
The “shrunken log2 fold change” value of the first is lower: -0.777 for the first, -0.345 for the second.

Going from RRIRPRPPRLPRPRPRPYKTPRP to RRIRPRPPRLPRPRPRPYMTPRP, the “shrunken log2 fold change” value falls from 0.001 to -0.227.

First: RRIRPRPPRLPRPRPRPYSKPRP
Second: RRIRPRPPRLPRPRPRPYTQPRP
The “shrunken log2 fold change” value of the first is lower: -0.868 for the first, -0.608 for the second.

First: RRIRPRPPRLPRPRPRPYVHPRP
Second: RRIRPRPPRLPRPRPRPYWTPRP
The “shrunken log2 fold change” value of the first is higher: -0.356 for the first, -0.68 for the second.

Compared with RRIRPRPPRLPRPRPRPYYHPRP, RRIRQRPPRLPRPRPRPAANPRP is higher in “shrunken log2 fold change” value: -0.794 for the first, 0.0666 for the second.

Going from RRIRQRPPRLPRPRPRPAAPPRP to RRIRQRPPRLPRPRPRPAAVPRP, the “shrunken log2 fold change” value falls from 0.243 to -0.0726.

RRIRQRPPRLPRPRPRPADEPRP and RRIRQRPPRLPRPRPRPAENPRP are within 0.2 log units of each other in “shrunken log2 fold change” value: -0.101 for the first, 0.0325 for the second.

Compared with RRIRQRPPRLPRPRPRPAFCPRP, RRIRQRPPRLPRPRPRPAGQPRP is lower in “shrunken log2 fold change” value: 0.585 for the first, -0.143 for the second.

Compared with RRIRQRPPRLPRPRPRPAHTPRP, RRIRQRPPRLPRPRPRPAITPRP is lower in “shrunken log2 fold change” value: 0.379 for the first, -0.114 for the second.

RRIRQRPPRLPRPRPRPAKDPRP and RRIRQRPPRLPRPRPRPAKWPRP are within 0.2 log units of each other in “shrunken log2 fold change” value: 0.0171 for the first, -0.0192 for the second.

Going from RRIRQRPPRLPRPRPRPAMVPRP to RRIRQRPPRLPRPRPRPAPLPRP, the “shrunken log2 fold change” value rises from 0.206 to 0.451.

RRIRQRPPRLPRPRPRPAPPPRP and RRIRQRPPRLPRPRPRPAPWPRP are within 0.2 log units of each other in “shrunken log2 fold change” value: 0.702 for the first, 0.548 for the second.

RRIRQRPPRLPRPRPRPAQHPRP and RRIRQRPPRLPRPRPRPAQKPRP are within 0.2 log units of each other in “shrunken log2 fold change” value: 0.189 for the first, -0.0027 for the second.

RRIRQRPPRLPRPRPRPAVAPRP and RRIRQRPPRLPRPRPRPAVNPRP are within 0.2 log units of each other in “shrunken log2 fold change” value: 0.0726 for the first, -0.0181 for the second.

RRIRQRPPRLPRPRPRPAWLPRP and RRIRQRPPRLPRPRPRPAWNPRP are within 0.2 log units of each other in “shrunken log2 fold change” value: -0.123 for the first, -0.206 for the second.

RRIRQRPPRLPRPRPRPCDFPRP was tested, and the “shrunken log2 fold change” value was 0.0344.
